Assay [1] has as its target T1, 人PD-L1胞外区-6His (human, UniProt Q9NZQ7 19-238).
T1 construct: also called PD-L1-6His; 人PD-L1胞外结构区-6His蛋白
Description: AlphaLISA competition: antibody titrated against binding of His-tagged PD-L1 to biotinylated PD-1. Background: In Alpha technology, singlet oxygen from a donor bead excites a nearby acceptor bead.

The target in assay [2] is T1, 人PD-L1胞外区-6His. The assay can be described thus: SPR (Biacore), multi-cycle kinetics; antibody captured on Protein A chip, PD-L1 as analyte from 40 nM in 2-fold dilutions, 6 concentrations. For orientation: SPR reads the build-up and loss of mass on a sensor chip optically.

T1 sequence (Q9NZQ7 other isoform, or with tags, fused parts or gaps): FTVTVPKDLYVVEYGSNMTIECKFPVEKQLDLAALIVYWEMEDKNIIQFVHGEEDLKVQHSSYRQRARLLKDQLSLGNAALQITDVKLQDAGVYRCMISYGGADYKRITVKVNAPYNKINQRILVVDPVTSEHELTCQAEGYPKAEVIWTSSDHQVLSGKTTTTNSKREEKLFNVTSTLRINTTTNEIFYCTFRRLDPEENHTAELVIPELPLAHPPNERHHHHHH

B1: 抗PD-L1全人源单克隆抗体 (antibody, V domains shown)
VH: QVQLVQSGGELKRPGSSVKVSCKASGGTFSSYAISWVRQAPGQGLEWMGRIIPIFGTANYAQKFQGRVTITADESTSTAYMELSSLRSEDTAVYYCASSSYRHFAFDIWGQGTTVTVSS
VL: QSALTQPASVSGSPGQSITISCTGTSSDVGSYNLVSWYQQHPGKAPKLMIYEVTKRPSGVSNRFSGSKSGNTASLTISGLQAEDEADYYCSSYAGSNNLVFGGGTKVTVL
notes: also called 抗PD-L1抗体; 抗PD-L1全长抗体
The IC50 is the point on the concentration scale where inhibition reaches its midpoint. Read a low IC50 as greater potency. One may read the Kd as the constant that tells how readily two partners part at equilibrium. A high value points to lower affinity. On to B1, for which, in assay [1], the concentration for half-maximal inhibition (IC50) stood at 0.0372 µg/mL. For the same molecule, the affinity in assay [2], expressed as Kd, was 7.1 nM.
